Experimental data from PMC4856418, “Inactive mutants of human pyridoxine 5′‐phosphate oxidase: a possible role for a noncatalytic pyridoxal 5′‐phosphate tight binding site” (FEBS Open Bio, 2016).

Legend:
Experiment in all cases: fluorescence polarisation; 1 μM FMI-labeled hPNPO in a 96-well plate, B6 enzymes added at 0 to 20 μM, incubated at 25 °C for 5 h; excitation 495 nm, emission 535 nm; curves fitted to a simple 1:1 model
Conditions in all cases: both partners purified
[1] = molecular target: T1, E. coli serine hydroxymethyltransferase (eSHMT) (E. coli, UniProt P0A825 1-417)
T1 construct: E. coli serine hydroxymethyltransferase; also called E. coli SHMT
T1 sequence (looked up): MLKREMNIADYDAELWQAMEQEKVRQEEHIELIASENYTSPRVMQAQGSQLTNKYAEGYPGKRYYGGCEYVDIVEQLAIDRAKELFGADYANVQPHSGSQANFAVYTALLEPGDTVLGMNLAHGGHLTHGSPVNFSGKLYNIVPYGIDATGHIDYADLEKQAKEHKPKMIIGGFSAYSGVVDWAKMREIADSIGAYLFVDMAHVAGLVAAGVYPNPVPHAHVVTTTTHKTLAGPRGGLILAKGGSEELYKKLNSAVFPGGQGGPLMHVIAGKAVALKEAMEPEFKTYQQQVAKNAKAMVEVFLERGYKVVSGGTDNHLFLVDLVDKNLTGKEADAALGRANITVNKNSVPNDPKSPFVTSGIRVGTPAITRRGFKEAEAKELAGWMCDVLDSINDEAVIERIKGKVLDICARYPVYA

[2] = molecular target: T2, rabbit cytosolic serine hydroxymethyltransferase (rcSHMT) (rabbit, UniProt P07511 1-484)
T2 construct: rabbit cytosolic serine hydroxymethyltransferase; In the PLP transfer experiments the apo form (PLP removed with D-alanine) was used; the fluorescence polarization text names rcSHMT without saying apo or holo; also called apo-rcSHMT; apo-SHMT
T2 sequence (looked up): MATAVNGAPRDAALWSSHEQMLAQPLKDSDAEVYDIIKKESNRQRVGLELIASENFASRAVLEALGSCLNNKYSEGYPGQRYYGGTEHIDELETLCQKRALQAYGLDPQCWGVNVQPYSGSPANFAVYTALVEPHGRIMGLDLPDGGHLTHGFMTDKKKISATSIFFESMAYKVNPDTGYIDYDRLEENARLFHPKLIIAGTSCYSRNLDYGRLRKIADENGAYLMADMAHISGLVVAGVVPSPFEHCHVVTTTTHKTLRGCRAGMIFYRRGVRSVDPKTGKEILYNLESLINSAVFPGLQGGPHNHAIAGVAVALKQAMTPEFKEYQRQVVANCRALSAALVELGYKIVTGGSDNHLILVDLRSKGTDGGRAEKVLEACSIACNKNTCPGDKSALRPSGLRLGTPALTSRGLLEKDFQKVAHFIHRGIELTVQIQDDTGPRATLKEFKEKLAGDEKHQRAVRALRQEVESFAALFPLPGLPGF

[3] = molecular target: T3, E. coli L-threonine aldolase (eL-TA) (E. coli, UniProt P75823 1-333)
T3 construct: E. coli L-threonine aldolase
T3 sequence (looked up): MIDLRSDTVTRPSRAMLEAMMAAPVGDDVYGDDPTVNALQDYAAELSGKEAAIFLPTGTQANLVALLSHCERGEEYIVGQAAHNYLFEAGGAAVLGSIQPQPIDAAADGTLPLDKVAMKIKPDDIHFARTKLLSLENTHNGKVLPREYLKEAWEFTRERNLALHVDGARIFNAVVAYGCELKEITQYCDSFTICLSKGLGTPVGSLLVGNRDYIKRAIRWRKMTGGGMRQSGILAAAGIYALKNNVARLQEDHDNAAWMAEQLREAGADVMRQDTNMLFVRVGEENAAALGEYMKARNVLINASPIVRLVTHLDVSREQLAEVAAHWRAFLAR

[4] = molecular target: T4, E. coli aspartate aminotransferase (eAATase) (E. coli, UniProt P00509 1-396)
T4 construct: E. coli aspartate aminotransferase
T4 sequence (looked up): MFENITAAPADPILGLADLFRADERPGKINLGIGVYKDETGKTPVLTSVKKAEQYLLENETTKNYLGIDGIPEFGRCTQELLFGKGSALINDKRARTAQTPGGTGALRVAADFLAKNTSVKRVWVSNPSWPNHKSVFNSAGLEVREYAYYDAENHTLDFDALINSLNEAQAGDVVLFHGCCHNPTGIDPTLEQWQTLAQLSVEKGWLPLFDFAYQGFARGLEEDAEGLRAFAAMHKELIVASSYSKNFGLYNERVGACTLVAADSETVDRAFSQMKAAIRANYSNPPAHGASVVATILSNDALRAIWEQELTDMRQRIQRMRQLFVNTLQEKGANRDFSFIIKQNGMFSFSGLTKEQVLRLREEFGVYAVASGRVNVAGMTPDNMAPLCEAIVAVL

Kd [1]: 1700 nM
Kd [2]: 800 nM
Kd [3]: 12300 nM
Kd [4]: 300 nM
B1: wild-type human pyridoxine 5′-phosphate oxidase (hPNPO) (enzyme)
chain: MTCWLRGVTATFGRPAEWPGYLSHLCGRSAAMDLGPMRKSYRGDREAFEETHLTSLDPVKQFAAWFEEAVQCPDIGEANAMCLATCTRDGKPSARMLLLKGFGKDGFRFFTNFESRKGKELDSNPFASLVFYWEPLNRQVRVEGPVKKLPEEEAECYFHSRPKSSQIGAVVSHQSSVIPDREYLRKKNEELEQLYQDQEVPKPKSWGGYVLYPQVMEFWQGQTNRLHDRIVFRRGLPTGDSPLGPMTHRGEEDWLYERLAP
modifications: labelled with fluorescein 5-maleimide (FMI) in the fluorescence polarization assay; labelled residues not stated
notes: human pyridoxine 5′-phosphate oxidase, wild type; FMI-labelled in the fluorescence polarization assay; also called FMI-labeled hPNPO; FMI-tagged hPNPO
